Experimental data from patent US20190062443A1 (GALAXY BIOTECH, published 2019).

Target: DR5-KF fusion protein (human, UniProt O14763 54-183; P01834 1-107, limits assumed)
Experiment: sandwich ELISA for simultaneous binding: anti-DR4 mAb coat, DR4-hFc 0.5 µg/ml, test mAb, DR5-KF 0.5 µg/ml, HRP-anti-Flag M2
Procedure: Each step of each ELISA assay described in this patent application was performed by room temperature incubation with the appropriate reagent for 1 hour, except the initial plate coating step was done overnight at 4° C. followed by blocking with 2% BSA for 1 hr. Between each step, plates were washed 3 times in PBS containing 0.05% Tween 20. Data points were generally in duplicate or triplicate; there was generally little variability between replicate data points.
Bound DR5-KF was detected with HRP-anti-Flag M2 (Sigma) and substrate.

Sequence of DR5-KF fusion protein (O14763 other isoform, or with tags, fused parts or gaps limits assumed): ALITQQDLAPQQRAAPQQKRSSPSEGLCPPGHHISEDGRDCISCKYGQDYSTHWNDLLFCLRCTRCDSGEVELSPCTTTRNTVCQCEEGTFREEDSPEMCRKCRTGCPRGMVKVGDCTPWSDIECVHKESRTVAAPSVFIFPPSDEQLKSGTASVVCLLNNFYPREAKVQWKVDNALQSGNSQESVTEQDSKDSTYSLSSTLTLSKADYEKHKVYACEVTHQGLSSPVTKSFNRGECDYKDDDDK

B1: B-4H6/3H3-hFc** (bispecific antibody, human IgG1, kappa)
heavy: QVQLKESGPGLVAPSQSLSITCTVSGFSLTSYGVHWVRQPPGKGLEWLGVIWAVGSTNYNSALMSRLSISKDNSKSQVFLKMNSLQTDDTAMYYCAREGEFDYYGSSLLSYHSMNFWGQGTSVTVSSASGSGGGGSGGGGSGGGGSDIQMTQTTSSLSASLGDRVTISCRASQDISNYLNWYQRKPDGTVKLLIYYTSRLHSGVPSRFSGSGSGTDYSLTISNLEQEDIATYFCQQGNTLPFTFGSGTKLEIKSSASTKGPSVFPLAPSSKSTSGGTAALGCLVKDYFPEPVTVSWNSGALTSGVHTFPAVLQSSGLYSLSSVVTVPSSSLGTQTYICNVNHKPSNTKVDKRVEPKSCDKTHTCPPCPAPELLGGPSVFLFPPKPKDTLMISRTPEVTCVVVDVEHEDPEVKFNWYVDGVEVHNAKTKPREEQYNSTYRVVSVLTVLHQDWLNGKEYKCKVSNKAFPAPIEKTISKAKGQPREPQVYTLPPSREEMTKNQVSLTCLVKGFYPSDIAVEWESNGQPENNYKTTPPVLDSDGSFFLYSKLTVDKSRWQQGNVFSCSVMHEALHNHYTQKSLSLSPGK
light: EVQLQQSGPELVKPGASVKMSCKASGYTFTSYVMHWVKQKPGQGLEWIGYIIPYNDGTKYNEKFKGKATLTSDKSSSTAYMELSRLTSEDSAVYYCARGGINYDYLYYFDYWGQGTTLTVSSASGSGGGGSGGGGSGGGGSDVVMTQIPLSLPVSLGDQASISCRSSQSLVHSNGNTYLHWYLQKPGQSPKLLIYKVSNRFSGVPDRFSGSGSGTDFTLKISRVEAEDLGVYFCSQSTHVPHTFGGGTKLEIKRTVAAPSVFIFPPSDEQLKSGTASVVCLLNNFYPREAKVQWKVDNALQSGNSQESVTEQDSKDSTYSLSSTLTLSKADYEKHKVYACEVTHQGLSSPVTKSFNRGEC
notes: Bs(scFv)4-IgG format; also called bispecific B-4H6/3H3-hFc** mAb
B1: binds.
